Source: patent publication US20220396632A1 (VERSEAU THERAPEUTICS, published 2022)

What was measured:
[1] = target: T1, Biotin PSGL-1(42-62) D50A peptide (C-terminal Lys-biotin); assay: ELISA; against wild-type PSGL-1 42-62
T1 peptide: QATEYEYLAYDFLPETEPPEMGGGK

[2] = target: T2, Biotin PSGL-1(42-62) E45A peptide (C-terminal Lys-biotin); assay: ELISA; against wild-type PSGL-1 42-62
T2 peptide: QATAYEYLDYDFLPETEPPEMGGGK

[3] = target: T3, Biotin PSGL-1(42-62) Y46A peptide (C-terminal Lys-biotin); assay: ELISA; against wild-type PSGL-1 42-62
T3 peptide: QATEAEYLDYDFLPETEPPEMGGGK

[4] = target: T4, Biotin PSGL-1(42-62) E56A peptide (C-terminal Lys-biotin); assay: ELISA; against wild-type PSGL-1 42-62
T4 peptide: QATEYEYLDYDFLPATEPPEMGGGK

[5] = target: T5, Biotin PSGL-1(42-62) L54A peptide (C-terminal Lys-biotin); assay: ELISA; against wild-type PSGL-1 42-62
T5 peptide: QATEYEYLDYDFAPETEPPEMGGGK

T57A = target: T6, T57A (C-terminal Lys-biotin); assay: alanine-scan ELISA, streptavidin-immobilized biotin peptide [cont.]
T6 construct: alanine-scan peptide; also called Biotin PSGL-1(42-62) T57A peptide; 57T
T6 peptide: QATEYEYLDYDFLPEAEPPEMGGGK

P60A = target: T7, P60A (C-terminal Lys-biotin); assay: as above
T7 construct: alanine-scan peptide; also called Biotin PSGL-1(42-62) P60A peptide; 60P
T7 peptide: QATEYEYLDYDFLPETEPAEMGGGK

E61A = target: T8, E61A (C-terminal Lys-biotin); assay: as above
T8 construct: alanine-scan peptide; also called Biotin PSGL-1(42-62) E61A peptide; 61E
T8 peptide: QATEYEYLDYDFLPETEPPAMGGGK

M62A = target: T9, M62A (C-terminal Lys-biotin); assay: as above
T9 construct: alanine-scan peptide; also called Biotin PSGL-1(42-62) M62A peptide; 62M
T9 peptide: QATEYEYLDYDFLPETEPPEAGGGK

Q42A = target: T10, Q42A (C-terminal Lys-biotin); assay: as above
T10 construct: alanine-scan peptide; also called Biotin PSGL-1(42-62) Q42A peptide; 42Q
T10 peptide: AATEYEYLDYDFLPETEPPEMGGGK

T44A = target: T11, T44A (C-terminal Lys-biotin); assay: as above
T11 construct: alanine-scan peptide; also called Biotin PSGL-1(42-62) T44A peptide; 44T
T11 peptide: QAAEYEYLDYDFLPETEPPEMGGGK

[6] = target: T2, Biotin PSGL-1(42-62) E45A peptide; assay: as above
[7] = target: T12, Biotin PSGL-1(42-62) L49A peptide (C-terminal Lys-biotin); assay: as above
T12 peptide: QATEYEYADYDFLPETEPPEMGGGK

[8] = target: T1, Biotin PSGL-1(42-62) D50A peptide; assay: as above
[9] = target: T4, Biotin PSGL-1(42-62) E56A peptide; assay: as above
[10] = target: T13, Biotin PSGL-1(105-125) peptide (human, N-terminal acetyl; C-terminal Lys-biotin); assay: ELISA, streptavidin-bound peptide
T13 peptide: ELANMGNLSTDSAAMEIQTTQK
Method: (§1) A typical ELISA experiment involved binding of a single concentration or serially diluted mAb in assay buffer (3% BSA in PBS containing 0.05% Tween®20, pH 7.4) onto BSA blocked high binding microtiter plate half-wells (Corning Cat. #3690), which contained PSGL-1 protein or streptavidin-immobilized biotin peptide. After incubation for 45 min. at 37° C., the plate was washed 3 times with wash buffer (PBS containing 0.05% Tween®20, pH 7.4), and an appropriate HRP-conjugated secondary antibody added (25 ul/well) (HRP goat anti-mouse or anti-human IgG). After 45 min. incubation at 37° C., the plate was washed and antibody bound to plate-immobilized target was determined at A450 nm using HRP substrate (3,3′5,5′-tetramethylbenzidine (TMB)). For each antibody, duplicate values were averaged and assay background subtracted.

[11] = target: T13, Biotin PSGL-1(105-125) peptide; assay: ELISA; against WT PSGL-1(ECD)-hFc1
Method: as §1

B1: 18F02 (antibody, V domains shown)
VH: QVQLQQPGAELVKPGASVKLSCKASGYTFTSYWMHWVKQRPGQGLEWIGMIHPNSGRTNYNEKFKSKATLTVDKSSSTAYMQLSSLTSEDSAVYYCARSDYWGQGTTLTVSS
VL: DIVMTQAAFSNPVTLGTSASISCRSSKSLLHSDGITYLYWFLQRPGQSPQLLIYRMSNLASGVPDRFSGSGSGTDFTLRISRVEAEDVGVYYCAQMLEFPRTFGGGTKLEIK
notes: From mouse immunisation; only variable domains given
EC50Ala/EC50 wt [1]: 35.6 fold

B2: 16L15 (antibody, V domains shown)
VH: DVKLVESGGGLVKLGGSLKLSCAASGFTFSSYYMSWVRQTPEKRLEWVATISNGGGSTYYPDSVKDRFTISRDNAKNTLYLQMSSLNSEDTAVYYCAKPLYYSNPWFAYWGQGTLVTVSA
VL: DVLLTQTPLSLPVSLGDQASISCRSSQSIVHSNGNTYLEWYLQKPGQSPKLLIYKVSNRFSGVPDRFSGSGSGTDFTLKISRVEAEDLGVYYCFQGSHVPRTFGGGTKLEIK
notes: as for B1
EC50Ala/EC50 wt [2]: 5.6 fold
EC50Ala/EC50 wt [3]: 4.7 fold

B3: 43B6 (antibody, V domains shown)
VH: EVQLQQSGPDLVKPGALVKISCKASGYSFTAYYIHWVKQSHGKSLEWIGRVNPNTGGTSYNPKFKGKAILNVDKSSSTAYMELRSLTSEDSAVYYCARSGSPYYRYDDWGQGTTLTVSS
VL: ENVLTQSPAIMSASPGEKVTMTCRASSTVNSTYLHWFQQKSGASPKLWIYGSSNLASGVPARFSGSGSGTSYSLTISSVEAEDAATYYCQQYSGYPLTFGAGTTLELK
notes: Control anti-PSGL-1 mAb, recombinant; only variable domains given; also called 43B3
EC50Ala/EC50 wt [4]: 22.3 fold

B4: 9F9 (antibody, V domains shown)
VH: EVQLVETGGGLVQPKGSLKLSCAASGFTFNTNAMNWVRQAPGKGLEWVARIRSKSNNYATYYADSVKDRFTISRDDTQSMIYLQMNNLKTEDTGMYYCVRGGSYWYFDVWGAGTTVTVSS
VL: DVLMTQTPLSLPVSLGDQASISCRSSQSIVNSNGNTYLEWYLQKPGQSPKLLIYKVSNRFSGVPDRFSGSGSGTDFTLKISRVEAEDLGVYYCFQGSHVPWTFGGGTKLEIK
notes: Control anti-PSGL-1 mAb, recombinant; only variable domains given; also called 9F6
EC50Ala/EC50 wt [5]: 14.4 fold
binding result (T57A): binds
binding result (P60A): binds
binding result (E61A): binds
binding result (M62A): binds
binding result (Q42A): binds
binding result (T44A): binds
binding result [6]: binds
binding result [7]: binds
binding result [8]: binds
binding result [9]: binds

B5: 16E17 (antibody, V domains shown)
VH: QIQLVQSGPELKKPGETVKISCKASGYAFTTYGMSWVKQAPGKGLKWMGWINTYSGVPKYADDFKGRFAFSLETSASTAYLHINNLKNEDTATYFCGRHYYGSSYFDYWGQGTTLTVSS
VL: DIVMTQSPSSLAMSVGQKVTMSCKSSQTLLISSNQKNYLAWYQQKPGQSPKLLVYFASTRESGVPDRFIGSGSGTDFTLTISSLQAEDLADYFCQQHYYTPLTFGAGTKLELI
notes: as for B1
fold weaker binding than to PSGL-1(ECD)-hFc1 [10]: ~20 fold
EC50/EC50WTprot [11]: ~100 fold
